Data on 83 sequences can be found in the supplement of paper PMC10598134.

± gives the standard deviation.

The data set is described as follows: collision cross section of unmodified peptide (TIMS, N2, iRT-aligned); higher = larger / more extended gas-phase ion. An outline of the steps: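 Collision cross section values rest on the Mason-Schamp equation applied to calibrated, run-aligned mobility data from synthetic peptides. Mobility (1/K0) was calibrated with three reference ions and aligned per run to the median iRT peptide deviation, and 1–3 technical replicates of the most abundant feature per charge state were averaged. Data came from a timsTOF Pro/HT in dda-PASEF mode (nitrogen, ~2.4 mbar) after a 120-min nanoflow C18 gradient at 60 °C.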

On to LLRGVGGSHGR, for which the collision cross section (charge state: 2) was 358.18 ± 0.097 Å² and the collision cross section (charge state: 3) was found to be 450.84 ± 3.9 Å². For GEKGNPGVGTQGPR, the collision cross section was 370.3 ± 0.92 Å² (charge state: 2) and 437.26 ± 1.3 Å² (charge state: 3). Sequence IGSLDNITHVPGGGNK came in with a collision cross section (charge state: 3) of 470.46 ± 1.9 Å².

With YSSSSIPEPFGSRGSPR, the collision cross section is recorded as 433.42 Å² (charge state: 2) and 521.94 ± 0.21 Å² (charge state: 3). As for AGRGFSLEELR, the collision cross section came out at 376.05 ± 0.67 Å² (charge state: 2) and 459.45 ± 3.3 Å² (charge state: 3).

VGLQVVAVKAPGFGDNR registered a collision cross section (charge state: 2) of 462.44 ± 2.5 Å² and a collision cross section (charge state: 3) of 487.54 ± 2.5 Å². On to THLAPYSDELR, for which the collision cross section is 381.48 ± 0.47 Å² (charge state: 2) and 446.52 ± 1.7 Å² (charge state: 3). Consider AVSILPLLGHGVPRLPPGR, for which, for the setting “charge state: 3”, the collision cross section turned out to be 563.87 ± 2.3 Å². Where the note is “charge state: 3”, TLTPASSPVSSPSKHGDR showed a collision cross section of 512.67 ± 1 Å². The same measure, in the same setting: as for TELLPGDRDNLAIQTR, the figure is 506.52 ± 0.86 Å². Turning to LGTTPSVYGGAGGRGIR, the collision cross section is, setting by setting: (charge state: 2) 444.42 ± 1.7 Å²; (charge state: 3) 523.45 ± 1.1 Å². Turning to ALASIDSKLNQAK, the collision cross section runs as follows: (charge state: 2) 410.25 ± 2 Å²; (charge state: 3) 481.52 ± 3.4 Å². With LGPPGNPGPSGSPGPK, the collision cross section reads like this: (charge state: 2) 383.56 ± 0.58 Å²; (charge state: 3) 453.1 ± 18 Å².

For VNALKNLQVK, the collision cross section was determined as 370.39 ± 1.1 Å² (charge state: 2) and 436.61 ± 6 Å² (charge state: 3). Consider VPTTEKPTVTVNFR, for which the collision cross section (charge state: 2) was 427.25 ± 2.6 Å² and the collision cross section (charge state: 3) is recorded as 517.02 ± 4.3 Å². Consider GSAPPGPVPEGSIR, for which the collision cross section (charge state: 2) was 377.29 ± 0.67 Å². With AAYQAAIRGVGSAQSR, the collision cross section reads like this: (charge state: 2) 436.77 ± 1.2 Å²; (charge state: 3) 509.17 ± 1.3 Å². The sequence TYVQDILR showed a collision cross section (charge state: 2) of 349.04 ± 0.59 Å². On to YTAQVDAEEK, for which the collision cross section (charge state: 2) was determined as 355.03 ± 0.55 Å². On to PGPKGEAGPTGPQGEPGVR, for which the collision cross section is, setting by setting: (charge state: 2) 431.75 ± 0.38 Å²; (charge state: 3) 479.17 ± 5.1 Å².

With TSYAQHQQVR, the collision cross section reads like this: (charge state: 2) 367.57 ± 0.48 Å²; (charge state: 3) 444.63 ± 0.86 Å².

SGATAGAAGGRGK came in with a collision cross section (charge state: 2) of 361.16 ± 1.5 Å² and a collision cross section (charge state: 3) of 443.5 ± 4.6 Å².

SFDEVEGVFGRGGGR: the collision cross section is 414.68 ± 0.96 Å² (charge state: 2) and 509.8 ± 1.2 Å² (charge state: 3). SFEDIHQYR: the collision cross section reads like this: (charge state: 2) 359.99 ± 0.48 Å²; (charge state: 3) 450.82 ± 1.1 Å². Take YLHDESGLNR: the collision cross section is, setting by setting: (charge state: 2) 361.42 ± 0.55 Å²; (charge state: 3) 447.46 ± 1.1 Å².

For the sequence DDIIENAPTTHTEEYSGEEK, the collision cross section (charge state: 3) was 551.19 ± 0.23 Å². In turn, GQQGEPGPK registered a collision cross section (charge state: 2) of 313.75 ± 0.93 Å².

As to LEKTIDDLEEK, the collision cross section amounted to 403.94 ± 1.9 Å² (charge state: 2) and 470.73 ± 4.5 Å² (charge state: 3). For SSGPGGQNVNKVNSK, the collision cross section worked out at 401.42 ± 1.8 Å² (charge state: 2) and 447.95 ± 4.2 Å² (charge state: 3). Consider SDDESSQKDIK, for which the collision cross section reads like this: (charge state: 2) 372.47 ± 1.1 Å²; (charge state: 3) 449.63 ± 0.82 Å². In the case of RLPTTGYLVYR, the collision cross section is 389.8 ± 0.35 Å² (charge state: 2) and 475.19 ± 2.9 Å² (charge state: 3).

For the sequence VDATADYICK, the collision cross section (charge state: 2) came to 353.92 ± 0.79 Å².

Take SKLLFSNTAAQK: the collision cross section runs as follows: (charge state: 2) 393.75 ± 6 Å²; (charge state: 3) 444.64 ± 5 Å². DYQPGITFIVVQK showed a collision cross section (charge state: 2) of 401.42 ± 0.24 Å² and a collision cross section (charge state: 3) of 485.74 Å². The like results for GDRGEIGPPGPR were, in that order, 366.43 ± 0.3 Å² and 425.03 ± 1.2 Å². For GEAGPTGPQGEPGVRGIR, the collision cross section (charge state: 3) is reported as 495.75 ± 4.4 Å². For the sequence GGGDRGGFGPGK, the collision cross section by setting is: (charge state: 2) 338.46 ± 2.1 Å²; (charge state: 3) 414.71 ± 5.6 Å².

Regarding GITGKPGPK, the collision cross section (charge state: 2) turned out to be 312.13 ± 0.57 Å². TQDQISNIKYHEEFEK: the collision cross section (charge state: 2) is on record as 459.39 Å² and the collision cross section (charge state: 3) amounted to 550.5 ± 0.31 Å².

As for VHATSTYR, the collision cross section is reported as 325.88 ± 0.49 Å² (charge state: 2) and 398.18 ± 1.6 Å² (charge state: 3). As to GPPRGGPGGELPR, the collision cross section runs as follows: (charge state: 2) 366.24 ± 0.38 Å²; (charge state: 3) 471.24 ± 3.4 Å².

As for FPGVGVLPGVPTGAGVK, the collision cross section reads like this: (charge state: 2) 421.12 ± 0.5 Å²; (charge state: 3) 509.46 ± 1.2 Å². Under “charge state: 2”, ETTPSSLAVTQTMATK had a collision cross section of 434.06 ± 0.13 Å². Turning to LGSASSSHGSIQESHK, the collision cross section (charge state: 3) was 509.47 ± 1.3 Å². For the sequence LFVGGIKEDTEEHHLR, the collision cross section runs as follows: (charge state: 2) 486.85 ± 3.6 Å²; (charge state: 3) 544.82 ± 2.6 Å². For VETTVTSLKTK, the collision cross section runs as follows: (charge state: 2) 379.41 ± 0.92 Å²; (charge state: 3) 459.8 ± 3.1 Å². For SVSSSSYR, the collision cross section (charge state: 2) is listed as 308.48 ± 0.73 Å².

For GKLGVPGLPGYPGR, the collision cross section stood at 385.87 ± 0.86 Å² (charge state: 2) and 480.85 ± 1.2 Å² (charge state: 3). Consider GDTGLPGPQGIPGGVGSPGR, for which the collision cross section by setting is: (charge state: 2) 429.26 ± 1 Å²; (charge state: 3) 497.26 ± 35 Å².

Regarding PGTPAGYGRGR, the collision cross section runs as follows: (charge state: 2) 352.56 ± 0.57 Å²; (charge state: 3) 442.29 ± 3.7 Å². Consider ALLQAKASGK, for which the collision cross section is 343.27 ± 1.1 Å² (charge state: 2) and 435.19 ± 4.7 Å² (charge state: 3). As to TAIQAAGYPDK, for the setting “charge state: 2”, the collision cross section was found to be 362.76 ± 1.1 Å². Consider GVPRGVHLGSQGLQR, for which the collision cross section runs as follows: (charge state: 2) 424.25 Å²; (charge state: 3) 484.7 ± 1.8 Å².

On to GTPGKPGPR, for which the collision cross section (charge state: 2) stood at 311.01 ± 0.77 Å². As for GRGGAESHTFK, the collision cross section is, setting by setting: (charge state: 2) 353.4 ± 0.58 Å²; (charge state: 3) 440.9 ± 5.6 Å².

Take GFGRGGAESHTFK: the collision cross section runs as follows: (charge state: 2) 384.5 ± 0.2 Å²; (charge state: 3) 473.03 ± 1.3 Å².

Turning to GSYLGGYSAGRGIYSR, the collision cross section (charge state: 2) was 455.17 Å² and the collision cross section (charge state: 3) came out at 483.36 ± 2.1 Å². Sequence TATLATLATR returned a collision cross section (charge state: 2) of 333.86 ± 0.69 Å². In turn, GPPGAKGNK came in with a collision cross section (charge state: 2) of 312.31 ± 1.7 Å². Turning to GDPGLIGPK, under “charge state: 2”, the collision cross section came to 313.62 ± 1.5 Å².

As for GLPGEKGER, the collision cross section came to 342.99 ± 1.2 Å² (charge state: 2) and 394.07 ± 1.2 Å² (charge state: 3). As for SKHLQEQLNELK, the collision cross section is, setting by setting: (charge state: 2) 411.35 ± 1.6 Å²; (charge state: 3) 481.15 ± 4.4 Å². The sequence FVDSKVGEFSGANK gave a collision cross section (charge state: 2) of 415.64 ± 1.8 Å². On to INNFSADIKDSK, for which the collision cross section by setting is: (charge state: 2) 403.18 ± 2.5 Å²; (charge state: 3) 450.51 ± 4 Å².

As to GEPGLPGHPGK, for the setting “charge state: 2”, the collision cross section amounted to 338.84 ± 0.58 Å². The sequence FGDSRGGGGNFGPGPGSNFR showed a collision cross section (charge state: 3) of 494.59 ± 1.9 Å². The sequence LSESHPDATEDLQR yielded a collision cross section (charge state: 3) of 474.77 ± 1.7 Å².

Take PASGAGAGAGAGKR: the collision cross section runs as follows: (charge state: 2) 378.29 ± 1.2 Å²; (charge state: 3) 457.42 ± 4 Å². With TPSSFRQPFTPTSR, the collision cross section (charge state: 3) is recorded as 486.75 ± 0.79 Å². In turn, DHLSDKESK yielded a collision cross section (charge state: 2) of 345.48 ± 0.71 Å² and a collision cross section (charge state: 3) of 415 ± 3.9 Å². The sequence ANAIGRGAK registered a collision cross section (charge state: 2) of 319.32 ± 2.5 Å². For FSHSVQNSERGK, the collision cross section reads like this: (charge state: 2) 402.29 ± 0.72 Å²; (charge state: 3) 464.33 ± 2.2 Å². On the same counts, the results for VDVEVPDVSLEGPEGKLK are 461.73 ± 2.9 Å² and 514.03 ± 36 Å².

Take KYEEIDNAPEER: the collision cross section runs as follows: (charge state: 2) 401.01 ± 1.2 Å²; (charge state: 3) 466.95 ± 4.5 Å². In turn, GATVTRGVPPPPTVR displayed a collision cross section (charge state: 2) of 421.15 Å² and a collision cross section (charge state: 3) of 511.54 ± 2 Å². Take VFIGNLNTLVVKKK: where the note is “charge state: 3”, the collision cross section came out at 483.04 ± 2.6 Å². ISPVEESEDVSNK: the collision cross section (charge state: 2) stood at 399.42 ± 0.14 Å². For the sequence FHYQDQEFLK, the collision cross section is, setting by setting: (charge state: 2) 406.29 ± 0.68 Å²; (charge state: 3) 457.95 ± 1.7 Å². As to SGGGYGGDRGGGYGGDR, the collision cross section is, setting by setting: (charge state: 2) 393.08 ± 1.3 Å²; (charge state: 3) 460.09 ± 0.81 Å². Take IINEPTAAAIAYGLDKK: the collision cross section reads like this: (charge state: 2) 487.73 ± 3.8 Å²; (charge state: 3) 556.28 ± 2.3 Å². Consider SPASDTYIVFGEAK, for which the collision cross section amounted to 403.4 ± 0.16 Å² (charge state: 2) and 478.14 ± 0.9 Å² (charge state: 3). As for VLDSGAPIKIPVGPETLGR, the collision cross section worked out at 485.73 ± 3 Å² (charge state: 2) and 510.9 ± 2.1 Å² (charge state: 3). Take LGSPSGKTGTCR: the collision cross section by setting is: (charge state: 2) 383.86 ± 1.2 Å²; (charge state: 3) 458.08 ± 4.7 Å².
